From the nanobody polyreactivity screen of Harvey et al. (2022)

assay: yeast display, Sf9 membrane polyspecificity reagent, FACS + sequencing; frameworks hold sequencing errors
Outline: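 After 36–48 hours of galactose induction, yeast (Saccharomyces cerevisiae BJ5465) displaying a synthetic nanobody library were stained at 4 °C for 1 hour with 10% biotinylated, detergent-solubilized Sf9 membrane reagent. Streptavidin microbeads enriched the stained cells before FACS sorting into low and high (top ~1%) gates on anti-HA and streptavidin fluorescence. Each clone's polyreactivity label reflects its gate of origin.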

Sequence	polyreactivity (PSR sort gate)
QVQLVESGGGLVQAGGSLRLSCPDSVRIFYYNTMGWYRQAPGKERQLVAAISAGGGRTYYADSVKGRFTISRDNAKNTVYFQMNRLKPEDTAVYYCAARKRAQQGTRDHDYWGQGSQVTVSS	high polyreactivity
QVQLVESGGGLVQAGGSLRLSCPSSGFTFSAYAMGWYRQAPGKERELVAAISTRGGSTRYADSVKGRFTISRDNAKNTVNVQMNSLTPDDTAVYYCAADTRSFYRYDYWGQGTQVTVSS	high polyreactivity
QVQLVESGGGLVQAGGSLRLSCSACGSIFFYYAMGWYRQAPGKERELVAAITFTGGSTYYADSVKGRFTISRDNAKNTVYLRMNSLKPEDTAVYYCAADWYYGDEYEYWGQGTQVTVSS	high polyreactivity
QVQLVESGGGLVQAGGSLRLSCSASGFIFRFYGMGWYRQAPGKERELVASIRRSGGSTYYADSVKGRFTISRDNAKNSVYLQMNSLKPEDTAVYDCAARWYVYVHFERYYWGQGTQVTVSS	high polyreactivity
QVQLVESGGGLVQAGGSLRLSCSASGFIFYLYTMGWYRQAPGKERELVAAITKSGTRTYYADSVKGRFTISRDNAKNTVYLQMNSLKPEDTAVYYCAAEWGSSYRWGMDYWGQGTQVTVSS	high polyreactivity
QVQLVESGGGLVQAGGSLRLSCSASGFIYPNNAMGWYRQAPGKERELVARISYGGGDTHYADSVKGRFTISRDNAKNTVYLQMNSLKPEDTAVYYCAVKDGQDDYWGQGTQVTVSS	low polyreactivity
QVQLVESGGGLVQAGGSLRLSCSASGFTFWVNAMGWYRQAPGKERELVAAISRRGGRTYYADSVKGRYTISRDNAKNTVYLQMNSLKPEDTAVYYCNKEDVGCSESDYWGQGTQVTVSS	high polyreactivity
QVQLVESGGGLVQAGGSLRLSCSASGFTFYYAMGWYRQAPGKERELVAAITSSGTTYYADSVKGRFTISRDNAKNTVYLQMHSLKPEDTAVYYCNAVRWSKYAFYDYWGQGTQVTVSS	high polyreactivity
QVQLVESGGGLVQAGGSLRLSCSASGIIFGWYAMGWYRKAPGKEREFVATISWSGASTYYADSVKGRFTISRDNAKNTVYLQLNSLKPEDTAVYYCAAVGRRQAFGRRDYWGQGKQVTVSS	high polyreactivity
QVQLVESGGGLVQAGGSLRLSCSASGIIFIYYGMGWYRKAPGKERELVAAISRSGGRTYYADSVKGRFTISRDNANNTVYFHMNSLKPEDTAVYYCANTYTQTGFDYWGQGTQVTVSS	high polyreactivity
QVQLVESGGGLVQAGGSLRLSCSASGIIFIYYGMGWYRKAPGTERELVAAISRSGGRTYYADSVKGRFTISRDNANNIVYLQMNSLKPEDTAVYYCATTYTPTGFDYWGQGTQVTVSS	high polyreactivity
QVQLVESGGGLVQAGGSLRLSCSASGIIFKYYAMGWYRQAPVKERELVAAISRSSGSTYYADSVKGRFTISRDNAKNTVYLQMNSLKPEDTAVYYCAASGWQQKLDYWVQGTQVTVSS	high polyreactivity
QVQLVESGGGLVQAGGSLRLSCSASGITFGRNTKGWYRQAPGKERELVAASDSGGNTYADSVKGRFTISRDNAKNTVYLQMNSLKPEDTAVYYCAVDGGEFSSYGYWGQGTQVTVSS	low polyreactivity
QVQLVESGGGLVQAGGSLRLSCSASGLIFPSNTMGWYRQAPGTERELVAAITFSGDSTNYADSVKGRFTISRDNAKNTVYVQMNSLKPEDTAVYYCAASQVSDTTRFGYWGQGTQVTVSS	low polyreactivity
QVQLVESGGGLVQAGGSLRLSCSASGNIFFGYAMGLYRQAPGKERQFVASITKIGGSTYYADSVKGRFTISRDNAKNTVYLQLNSLKPEDTAVYYCAARLGHSVNPGGERWDVVYWGQGTQVTVSS	low polyreactivity
QVQLVESGGGLVQAGGSLRLSCSASGRIFHRYTMGWYRQSPGKEREFVAAITTRAGSTYYADSVKGRFTISRDNAKYTVFLQMNSLKPEDTAVYYCNIRRHSMFGGTTTRYDFWGQGTQVTVSS	high polyreactivity
QVQLVESGGGLVQAGGSLRLSCSASGRIFSGYAMGWYRQAPGKERELVAAITSVGSTNYADSVKGRFTISRDNAKNTVYLQMNSLKTEDTAVYYCAARSQIYYRYRSYGYWGQGTQVTVSS	high polyreactivity
QVQLVESGGGLVQAGGSLRLSCSASGRIFVIYDMGWYRQAPGKEWEFVAAISWRTGSTYYADSVKGRFTISRDNAKNTVYLQMNSLKPEDTAVYYCAASIGLVHYDYWGQGTQVTVSS	low polyreactivity
QVQLVESGGGLVQAGGSLRLSCSASGRNFWFYAKGWYRQAPGKERELVAAISSGGSTNYADSVKGRFTISRDNAKNTVYLQMNSLKPEDTAVYYCAKVGNIPYGTRYYSNRYDYWGQGTLVTVSS	low polyreactivity
QVQLVESGGGLVQAGGSLRLSCSASGRTFGAYAMGWSRQAPGKERELVASISRSGGTTYYADSVKGRFTISRDNAKNTVYLQMNSLKPEDTAVYYCAAQYVRYGHYYWGQGTQVTVSS	high polyreactivity
QVQLVESGGGLVQAGGSLRLSCSASGSIFGRKMGWYRQAPVKERELVAAITWSGGRTYYADSVKGRFTISRDNAKNTVYLLMNCLKPEDTAVYYCNAVRRYTGYAFKDDYWGQGNQVTVSS	high polyreactivity

Sequence	polyreactivity (PSR sort gate)
QVQLVESGGGLVQAGGSLRLSCSASGSIFGVYTMGWFRQAPGKERELVAAITSAGSTYADSVKGRFTISRDNAKNTVYLQMNSLKPEDTAVYYCNAESVLLSVLVELREPHEYWGQGTQVTVSS	low polyreactivity
QVQLVESGGGLVQAGGSLRLSCSASGSIFNYYTMGWDRQAPGKERELVAVITWSDDSTYYADSVKGRFTISRDNAKNTVYLQMNSLKPEDTAVYYCNARSWGWYRIAYGYWGQGTQVTVSS	low polyreactivity
QVQLVESGGGLVQAGGSLRLSCSASGSIFPKNAMGWYRQAPGKERELVARISGSGGSTYYADSVKGRFTISRDNAKNTVYLQMNSLKPEDTAVYYCAKDQSKIYSSWSGYYYWGQGTQVTVSS	low polyreactivity
QVQLVESGGGLVQAGGSLRLSCSASGSNFGYYAMGWYRQAPGKERELVASITWTGGSTYYADSVKGRFTISRDNAKNTVYLQMNSLKPEDTAVYYCAAQLEPSYWFWTGYGYWGQGTQVTVSS	high polyreactivity
QVQLVESGGGLVQAGGSLRLSCSASGSTFGYNAMGWYRQAPGKERELVAAILFSGGSTFYADSVKGRFTISRDNAKNTVYLQMNSLKQEDTAVYYCADYAGYYAYDSWGQGTQVTVSS	low polyreactivity
QVQLVESGGGLVQAGGSLRLSCSASGSTFTYYAIGWYRTAPGEERELGAAISWRGTSTYYADSVKGRFTISRDNAKNSVYLQMNSLKTEETAVYSCAGRGLWPYDYWGQGTQVTVSS	low polyreactivity
QVQLVESGGGLVQAGGSLRLSCSASGTISGLYAMGWYRQATGKERELVARIRWRGDSTYYADSVKGRFTISRDNAKNTVYLQMNSLNPEDTAVFYCAASAYSGKVNKYNYWGQGTQVTVSS	high polyreactivity
QVQLVESGGGLVQAGGSLRLSCSASGYTFSSYGMGWYRQAPGKERELVAAITGSTGTTYYADSVQGRFTISRDNAKNTVYLQMISLKPEDTAVYYCAAEYQSYPWYDYWGQGTQVTVSS	high polyreactivity
QVQLVESGGGLVQAGGSLRLSCSASRSTFPGYAMGWYRQAPGKERELVAAISVSGDRTYYADSVKRRFTISRDNPQNTVYLQMNRLKPEDTAVYYCAVRTRYRGSGVWVGNYSWGQGTQVTVSS	high polyreactivity
QVQLVESGGGLVQAGGSLRLSCSAYGFIFTGYAMGWYRQAPGKEREFVAAISYSGGSTYADSVKGRFTISRDNAKNSVYLQMNSLKPEDTAVYYCNARQGLWRYTAENDYWGQGTQVTVSS	low polyreactivity
QVQLVESGGGLVQAGGSLRLSCTASGITSGSYAMGWYRQAPGKERELVAAISNSGSTYYADSVKGRFTISRDNAKNSVYLQMNSLKPEDTAVYYCNADDWWGGYDYWGQGTQVTVSS	low polyreactivity
QVQLVESGGGLVQAGGSLRLSCVASGFIFRRNAMGWYRQAPGKERELVATISSGGNTYYADSVKGRFTISRDNAKNTVYLQMNSLKPVDTAVYYCIASDGLPSKLNVYVEFDYWGQCTQVTVSS	low polyreactivity
QVQLVESGGGLVQAGGSLRLSCVASGFTFIRYAMGWYRQAPGKERELVASITRGGSTYYADSVKGRFTISRDNAKYTVYLQMNSLKPEDTAVYYCATTSYYGYDYWGQGTQVTVSS	high polyreactivity
QVQLVESGGGLVQAGGSLRLSCVASGRIFARNAMGWYRQAPGKERELVAAITWSVGSTYYADSVKGRFTISRDNAKNTVYLQMISLKPEDTAVYYCAERYWYSRYWYDYWGQGTQVTVSS	high polyreactivity
QVQLVESGGGLVQAGGSLRLSCVASGRTFSRYAMGWYRQAPGKERELVAAISLRCGRTKYADSVKGRFTISRDNAKNTVYLQMNSLKPEDTAVYYCAADIYYGYPWRYHAGYYEGFDYWGQGTQVTVSS	high polyreactivity
QVQLVESGGGLVQAGGSLRLSFAASGGTFYTYVMGWYRQAPGKERELVAAISGSGGSTYYADSVKGRFTISRDNAKNTVYLQMNSLKPEDTAVYYCAAEGFVTWYRQGQVYYWGQGTQVTVSS	high polyreactivity
QVQLVESGGGLVQAGGSLRLSFAASGIIFDINAMGWYRQAPGKERELVAAITTSVDSTYYADSVKGRFTISRDNAKNTVYLQMNSLKPEDTAVYYCAAGPGDSGDDYWGQGTQVTVSS	low polyreactivity
QVQLVESGGGLVQAGGSLRLSFAASGIIFRYSAMGWYRQEPGKERELVAAISRSGARTYYADSVKGRFTISRDNAKNTVYLQMNSLKPEDTAVYYCATDPTSGRFYYWGQGTQVTVSS	high polyreactivity
QVQLVESGGGLVQAGGSLRLSFAASGLIIFSYAMGWYRHAPGKEREIVASIRSSGGSTNYADSVKGRFTISRDNAKNTVYLQMYSLKPEDTAVYYCATRSKTSGRSYIPFNYWGQGTQVTVSS	high polyreactivity
QVQLVESGGGLVQAGGSLRLSFAASGLTFYTNAMGWYRQAPGKETELVATITSGGRTSYADSVKGRFTISRDNAKNTVYLEMNRLKPEDTAVYYCADTTGWYGARYGYWGQGTQVTVSS	high polyreactivity
